This is an account of results in patent US20240218060A1 (Hoffmann-La Roche, published 2024).

The experiment has as its target T1, human neonatal Fc-receptor (FcRn) (human, UniProt P55899 24-297; P61769 21-119).
T1 construct: also called human FcRn; huFcRn
As to the kind of experiment: SPR (BIAcore T100), FcRn immobilised on a CM5 chip, 200 nM antibody, PBS 0.05% Tween20 pH 6.0.

T1 sequence (P55899 24-297 limits assumed, chain 1 of 2): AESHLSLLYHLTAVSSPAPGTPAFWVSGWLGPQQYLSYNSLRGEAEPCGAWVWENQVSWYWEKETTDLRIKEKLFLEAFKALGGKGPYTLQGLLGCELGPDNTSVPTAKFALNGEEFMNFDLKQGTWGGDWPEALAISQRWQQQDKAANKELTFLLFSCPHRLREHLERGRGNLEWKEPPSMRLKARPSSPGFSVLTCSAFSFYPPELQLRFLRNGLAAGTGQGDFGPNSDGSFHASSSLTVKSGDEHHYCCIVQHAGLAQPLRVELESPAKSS
T1 sequence (P61769 21-119 limits assumed, chain 2 of 2): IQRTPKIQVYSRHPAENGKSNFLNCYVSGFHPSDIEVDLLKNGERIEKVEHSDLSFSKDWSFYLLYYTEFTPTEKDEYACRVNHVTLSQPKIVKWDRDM
Experimental: The binding properties of wild-type antibody and the mutants to FcRn were analyzed by surface plasmon resonance (SPR) technology using a BIAcore T100 instrument (BIAcore AB, Uppsala, Sweden). […] In the current assay, the FcRn receptor was immobilized onto a BIAcore CM5-biosensor chip (GE Healthcare Bioscience, Uppsala, Sweden) via amine coupling to a level of 400 Response units (RU). The assay was carried out at room temperature with PBS, 0.05% Tween20 pH 6.0 (GE Healthcare Bioscience) as running and dilution buffer. 200 nM of samples were injected at a flow rate of 50 μL/min at room temperature. Association time was 180 sec., dissociation phase took 360 sec. Regeneration of the chip surface was reached by a short injection of HBS-P, pH 8.0. Evaluation of SPR-data was performed by comparison of the biological response signal height at 180 sec. after injection and at 300 sec. after injection. The corresponding parameters are the RU max level (180 sec. after injection) and late stability (300 sec. after end of injection).

B1: YTE-mutant of anti-IGF-1R antibody (antibody, human IgG1, kappa)
light: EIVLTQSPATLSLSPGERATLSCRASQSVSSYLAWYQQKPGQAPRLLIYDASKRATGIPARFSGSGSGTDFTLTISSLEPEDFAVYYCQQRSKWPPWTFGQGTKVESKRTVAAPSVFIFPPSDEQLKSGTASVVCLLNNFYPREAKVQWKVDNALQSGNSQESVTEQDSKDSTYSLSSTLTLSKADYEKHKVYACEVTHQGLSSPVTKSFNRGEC
heavy: QVELVESGGGVVQPGRSQRLSCAASGFTFSSYGMHWVRQAPGKGLEWVAIIWFDGSSTYYADSVRGRFTISRDNSKNTLYLQMNSLRAEDTAVYFCARELGRRYFDLWGRGTLVSVSSASTKGPSVFPLAPSSKSTSGGTAALGCLVKDYFPEPVTVSWNSGALTSGVHTFPAVLQSSGLYSLSSVVTVPSSSLGTQTYICNVNHKPSNTKVDKKVEPKSCDKTHTCPPCPAPELLGGPSVFLFPPKPKDTLYITREPEVTCVVVDVSHEDPEVKFNWYVDGVEVHNAKTKPREEQYNSTYRVVSVLTVLHQDWLNGKEYKCKVSNKALPAPIEKTISKAKGQPREPQVYTLPPSRDELTKNQVSLTCLVKGFYPSDIAVEWESNGQPENNYKTTPPVLDSDGSFFLYSKLTVDKSRWQQGNVFSCSVMHEALHNHYTQKSLSLSPG
notes: also called <IGF-1R> IgG1 with M252Y, S254T, T256E; anti-IGF-1R IgG1 with YTE mutation
In the case of B1, the binding result was “binds”.
